In the nanobody polyreactivity screen of Harvey et al. (2022):

Assay: yeast display, Sf9 membrane polyspecificity reagent, FACS + sequencing; frameworks hold sequencing errors
Procedure, shortened: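 A nanobody's polyreactivity label depends on the gate it was sorted from. Yeast display cells were stained with 10% biotinylated, detergent-solubilized Sf9 membrane reagent for 1 hour at 4 °C, enriched on streptavidin microbeads and sorted by FACS. The low and high (top ~1%) gates were set on anti-HA fluorescence for expression and streptavidin fluorescence for reagent binding.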

Sequence	polyreactivity (PSR sort gate)
QVQLVESGGGLVQAGGSLRLSCAASGSIFSPYAMGWYRQAPGKERELVAAIRWGGGCTYADSVKGRFTISRDNAKNTVYLQMNSVIPEDSAVYYCAARRRSLRGYDYWGQGTQVTVSS	high polyreactivity
QVQLVESGGGLVQAGGSLRLSCAASGSIFSPYAMGWYRQAPGKQRELVAAISKTGGSTYYADSVKGRFTISRDNAKNTVYLQMNSLKPEDTAVYYCATQGPRWVRHFDYWGQGTQVTVSS	low polyreactivity
QVQLVESGGGLVQAGGSLRLSCAASGSIFSRNAMGWYRQAPGKERELVAAISYSSGSTYYADSVKGRFTLSRDNAKNTVYLQMNSLKPEDTAVYYCAADTTKLQGAEVDFWGQGTQVTVSS	low polyreactivity
QVQLVESGGGLVQAGGSLRLSCAASGSIFSRNDMGWYRLAPGKERELVAAITSDDTSTYYADSVNGRFTISRDNAKNTVYLQMNSLKPEDTAVYYCAADYGNPFDYWGQGTQVTVSS	low polyreactivity
QVQLVESGGGLVQAGGSLRLSCAASGSIFSRYAMGWYRQAPAKERELVAASSSRGGSTYYADSVKGRFTISRDNAKNTVYLQMNSLKTEDTAVYYCAAQAPDTPSLDEGDFWGQGTQVTVSS	high polyreactivity
QVQLVESGGGLVQAGGSLRLSCAASGSIFSRYAMGWYRQAPGKERELVAAINGRGSRTYYADSVKGRFTISRDNAKNTVYLQMNSLKPEDTAVYYCAAGRSRLYGPRYFIYKYNYWGQGTQVTVSS	high polyreactivity
QVQLVESGGGLVQAGGSLRLSCAASGSIFSRYAMGWYRQAPGKERELVAAISQRAGSTYYADSVKGRFTISRDNAKNTVYLQMNSLKPEDTAVYYCAARRRGRKERGEDYWGQGTQVTVSS	high polyreactivity
QVQLVESGGGLVQAGGSLRLSCAASGSIFSRYAMGWYRQAPGKERELVAAISRGGSTNYADSVKGRFTISRDNAMNTVYLQMNSLKPEDTAVYYCAADGGKNPVRYDYWGQGTQVTVSS	high polyreactivity
QVQLVESGGGLVQAGGSLRLSCAASGSIFSRYAMGWYRQAPGKERELVAAISWRGGSTYYADSVKGRFTISRDNAKNTVYLQMTSLKPEDTAVYYCAAVYRGGPYYYWGQGTQVTVSS	high polyreactivity
QVQLVESGGGLVQAGGSLRLSCAASGSIFSRYAMGWYRQAPGKERELVAGISRGSSTYYADSVKGRFTISRDNAKNTVYLQMNSLKPEDTAVYYCARSGGSGGYYYWGQGTQVTVSS	low polyreactivity
QVQLVESGGGLVQAGGSLRLSCAASGSIFSRYAMGWYSQAPGKELELVAAISWRGGSTYYADSVKGRFTISRDNAKNTVYLQMNSLKPEDTAVYYCAVRDYRPYSRFDFWGQGTQVTVSS	high polyreactivity
QVQLVESGGGLVQAGGSLRLSCAASGSIFSRYTLGWYRQAPGKVRELVARINSSGTSTYYADSLKGRFTISRDKAKNTVYLQMNSLKPEDTAVYYCARTSRHVRYDYWGQGTQVTVSS	low polyreactivity
QVQLVESGGGLVQAGGSLRLSCAASGSIFSSNAMGWYRQAPGKERELGAAISRSACSTYYADSVKGRFTISRDNAKNTVYLQMNSLKPEDTAVYYCNAVTRLGTYDYWGQGTQVTVSS	high polyreactivity
QVQLVESGGGLVQAGGSLRLSCAASGSIFSSNAMGWYRQAPGKERELVASIDGGPTTYADSVKGRFTISRDNAKNTVYLQMNSLKPEDTAVYFCKAVYAFNGYDYWGQGTQVTVSS	low polyreactivity
QVQLVESGGGLVQAGGSLRLSCAASGSIFSSNAMGWYRQAPGKERELVASIRRGGSTYYADSVKGRFTISRDNAMNTVYLQMNSLKPEDTAVYDCARRYVPWYATYDHWGQGTQVTVSS	high polyreactivity
QVQLVESGGGLVQAGGSLRLSCAASGSIFSSNTMGWYRQAPGKERELVAAITSGGGTYYADSVKGRFTISRDNAKNTVYLQMNSLKPEDTAVYYCAAQRDYKSSPSYDYWGQGTQVNVSS	low polyreactivity

Sequence	polyreactivity (PSR sort gate)
QVQLVESGGGLVQAGGSLRLSCAASGSIFSSYALGWYRQAPGKERELVAAISQSGGDTYYADSVKGRFTISRDNAKNTVYLQMNSLKPEDTAVYYCAADWAYYVASYLYYTFDYWGQGTQVTVSS	low polyreactivity
QVQLVESGGGLVQAGGSLRLSCAASGSIFSSYAMGWYRQAPGKERELVAGISRRGGSTYYADSVKGRFTISRDNAKNTVYLLMNSLKPEDTAVYYCNARYAGSDLDYWGQGTQVTVSS	high polyreactivity
QVQLVESGGGLVQAGGSLRLSCAASGSIFSSYAMGWYRQAPGKERELVAVITSGDSTNYADSVKGRFTISRDNAKNTVYLQMNSLKPEDTAVYYCNADSYGGSDRYDYWGQGTQVTVSS	low polyreactivity
QVQLVESGGGLVQAGGSLRLSCAASGSIFSTNAMGWYRQAPGKERELVAAITYSGSLTYYADSVKGRFTISRDNAKNTVYLQMNSLKPEDTAVYYCAADTSWYSWWFDYWGQGTQVTVSS	low polyreactivity
QVQLVESGGGLVQAGGSLRLSCAASGSIFSTYAMGGYRQAPGKERELVAAIRDSGDRTYYADSVKGRFTISRDNAKNTVYLQMNSLKPDDTAVYYCYARWQEPLKYDYWGQGTPVTVSS	low polyreactivity
QVQLVESGGGLVQAGGSLRLSCAASGSIFSTYAMGWYRQAPGKERELVAAISSSGSTYYADSVKGRFTLSRDNAKNTVYLQMNSLKPEDTAVYYCAAGKYRRTSRYRYDSWGQGTQVTVSS	high polyreactivity
QVQLVESGGGLVQAGGSLRLSCAASGSIFSVNAMGWYRQAPGKERELVAGITISGGRTYYADSVKGRFTISRDNAKNTVYLEMNSLKPEDTAVYYCAADWVYPPGLKDSVHFGEYDYWGQGTQVTVSS	low polyreactivity
QVQLVESGGGLVQAGGSLRLSCAASGSIFSVNTKGWYRQAPGKERELVATIRTGDSTNYADSVKGLFTISRDNAKNTVYLQMNSLKPEDTAFYYCAAEWSSLNFDYWGQGTQVTVSS	low polyreactivity
QVQLVESGGGLVQAGGSLRLSCAASGSIFSVYAMGWYRPAPGKERELVASITNDGSTNYADSVKGRFTISRDNAKNTVYLQMNSLKPEDTAVYYCNADSYTKLDYWGQGTQVTVSS	low polyreactivity
QVQLVESGGGLVQAGGSLRLSCAASGSIFSVYAMGWYRQAPGKERELVATITWSGGRTYYADSVKGRFTISRDNAKNTVYLQMNSLKPEDTAVYYCAATSWWATTGFDYWGQGTQVTVSS	low polyreactivity
QVQLVESGGGLVQAGGSLRLSCAASGSIFSVYAMGWYRQAPGKERELVATITWSGGRTYYADSVKGRYTISRDNAKNTVYLQMNSLKPEDTAVYYCAATSWWATTGFDYWGQGTQVTVSS	low polyreactivity
QVQLVESGGGLVQAGGSLRLSCAASGSIFSWYAMGWYRQAPGKERELVAAISSRGGSTYYADSVKGRFTISRDNAKNTVYLQMNSLKPEDTAVYYCNTTYGYSTYWASGKYDYWGQGTQVTVSS	low polyreactivity
QVQLVESGGGLVQAGGSLRLSCAASGSIFSYYALGWYRQAPGKERELVAAISYSGGTTYYADSVKGRFTISRDNAKNTVYLQMNSLKPEDTAVYYCAAQWWWNRPVRYEYWGQGTQVTVSS	low polyreactivity
QVQLVESGGGLVQAGGSLRLSCAASGSIFSYYAMGWSRQAPGKERELVAAISRSGTSTYYADSVKGRFTISRDNAKNTVSLQMNSLKPEVNAVDYCNARWGFSRHRLMGYWGQGTQVSVSS	high polyreactivity
QVQLVESGGGLVQAGGSLRLSCAASGSIFSYYAMGWYRQAPGKERELVAAISKRGASTYYADSVKGRFTISRDNAKNTVYLQMNSLKPEDTAVYYCAARPYGGGRRSIYYYWGQGTQVTVSS	high polyreactivity
QVQLVESGGGLVQAGGSLRLSCAASGSIFSYYAMGWYRQAPGKERELVAAISKRGASTYYADSVKGRFTISRDNAKNTVYLQMNSLKPEDTAVYYCNRVLYDHSFPYNRGYDYWGQGTQVTVSS	high polyreactivity
